Laboratory results reported in article PMC10117238, “Molecular mechanism underlying the increased risk of colorectal cancer metastasis caused by single nucleotide polymorphisms in LI-cadherin gene” (Scientific Reports, 2023).

What was measured:
[1] = biological target: LI-cadherin EC1-4 (Homo sapiens) (UniProt Q12864); test: SV-AUC; conditions: cited from earlier work
[2] = biological target: LI-cadherin EC1-2 (Homo sapiens) (UniProt Q12864); test: SV-AUC; conditions: cited from earlier work
[3] = biological target: T1, LI-cadherin EC1-2K115E (human); test: AUC; sedimentation velocity (SV-AUC), 20 °C, 42,000 rpm, UV detection; 1-120 µM EC1-4K115E or 1-60 µM EC1-2K115E; buffer A (10 mM HEPES-NaOH pH 7.5, 150 mM NaCl, 3 mM CaCl2); homodimer to monomers; conditions: both partners purified
T1 chain: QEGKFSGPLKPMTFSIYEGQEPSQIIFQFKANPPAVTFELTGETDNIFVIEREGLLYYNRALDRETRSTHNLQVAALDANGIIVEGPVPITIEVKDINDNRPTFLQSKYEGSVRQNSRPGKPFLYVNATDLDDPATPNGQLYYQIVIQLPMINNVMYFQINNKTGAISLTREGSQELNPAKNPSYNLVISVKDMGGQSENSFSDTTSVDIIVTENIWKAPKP

[4] = biological target: the molecule itself; test: as above

## LI-cadherin EC1-4 (from UniProt Q12864)
[1]
  Kd: 39.8 µM

## LI-cadherin EC1-2 (from UniProt Q12864)
[2]
  Kd: 75 µM

B1: LI-cadherin EC1-2K115E (domain or fragment)
chain: QEGKFSGPLKPMTFSIYEGQEPSQIIFQFKANPPAVTFELTGETDNIFVIEREGLLYYNRALDRETRSTHNLQVAALDANGIIVEGPVPITIEVKDINDNRPTFLQSKYEGSVRQNSRPGKPFLYVNATDLDDPATPNGQLYYQIVIQLPMINNVMYFQINNKTGAISLTREGSQELNPAKNPSYNLVISVKDMGGQSENSFSDTTSVDIIVTENIWKAPKP
modifications: N-glycosylated (Expi293F expression, N-glycans on EC2); Ca2+-bound (3 mM CaCl2). Limits by convention: mature N-terminus Gln23 (as in 7CYM) to end of UniProt Cadherin 2 domain (244). C-terminal …
[3]
  Kd: 343 µM
  stoichiometry N: 2

B2: LI-cadherin EC1-4K115E (domain or fragment, human)
chain: QEGKFSGPLKPMTFSIYEGQEPSQIIFQFKANPPAVTFELTGETDNIFVIEREGLLYYNRALDRETRSTHNLQVAALDANGIIVEGPVPITIEVKDINDNRPTFLQSKYEGSVRQNSRPGKPFLYVNATDLDDPATPNGQLYYQIVIQLPMINNVMYFQINNKTGAISLTREGSQELNPAKNPSYNLVISVKDMGGQSENSFSDTTSVDIIVTENIWKAPKPVEMVENSTDPHPIKITQVRWNDPGAQYSLVDKEKLPRFPFSIDQEGDIYVTQPLDREEKDAYVFYAVAKDEYGKPLSYPLEIHVKVKDINDNPPTCPSPVTVFEVQENERLGNSIGTLTAHDRDEENTANSFLNYRIVEQTPKLPMDGLFLIQTYAGMLQLAKQSLKKQDTPQYNLTIEVSDKDFKTLCFVQINVID
notes: Liver Intestine-cadherin (LI-cadherin, CDH17), human; the first four N-terminal extracellular cadherin repeats EC1-4, with the SNP change Lys115 to Glu (c.343A>G); Made in mammalian cells, N-glycosylated; K115E is a SNP variant found in patients, made here by site-directed mutagenesis; also called K115E of EC1-4; source: Expi293F, transfected (pcDNA3.4), purified from the supernatant (Ni-NTA, SEC)
[4]
  Kd: 51.6 µM
  stoichiometry N: 2
